We go through five molecules from patent publication US9346889 (MEDIAPHARMA S R L, dated 2016).

For assay [1], the target named is T1, human ErbB3 receptor (human, UniProt P21860 20-1342).
T1 construct: whole, on cells; also called HER-3; HER3
Put plainly: hybridoma screening; reactivity with NIH/3T3 cells transfected with human ErbB3. As to the method:
Four-weeks old Balb/c mice were immunized by intraperitoneal injection of live NIH/3T3 cells transfected with the human ErbB3 receptor. Seven days later, mice were given an additional intraperitoneal injection of the immunogen. After additional seven days, mice were boosted intravenously with the immunogen, and spleens were removed for cell fusion 3 days later. Somatic cell hybrids were prepared by fusion of immune splenocytes with the murine nonsecreting myeloma cell line NS-1. Hybridoma supernatants were selected on the basis of differential reactivity with LTR-ErbB3 transfected cells, but not with LTR-neo NIH/3T3. All positive hybridoma cell colonies were cloned twice by limiting dilution and further characterized.

The target of assay [2] is T1, human ErbB3 receptor. Put plainly: immunofluorescence on IR-8 human melanoma cells. As to the method:
IR-8 human melanoma cells were maintained on ice for 30 minutes in the presence of 10 µg/ml of chimeric (cMP-RM-1 #1) or humanized (hMP-RM-1 #6, hMP-RM-1 #10, hMP-RM-1 #20) MP-RM-1 antibody variants and then returned to 37° C. for 60 minutes. Cells were harvested and stained with a fluorescein-labeled goat anti-human IgG antibody and analyzed by FACS.

In assay [3] the target is T1, human ErbB3 receptor. In words: immunofluorescence on IR-8 human melanoma cells, 10 ug/ml, on ice.

T1 sequence (P21860 20-1342): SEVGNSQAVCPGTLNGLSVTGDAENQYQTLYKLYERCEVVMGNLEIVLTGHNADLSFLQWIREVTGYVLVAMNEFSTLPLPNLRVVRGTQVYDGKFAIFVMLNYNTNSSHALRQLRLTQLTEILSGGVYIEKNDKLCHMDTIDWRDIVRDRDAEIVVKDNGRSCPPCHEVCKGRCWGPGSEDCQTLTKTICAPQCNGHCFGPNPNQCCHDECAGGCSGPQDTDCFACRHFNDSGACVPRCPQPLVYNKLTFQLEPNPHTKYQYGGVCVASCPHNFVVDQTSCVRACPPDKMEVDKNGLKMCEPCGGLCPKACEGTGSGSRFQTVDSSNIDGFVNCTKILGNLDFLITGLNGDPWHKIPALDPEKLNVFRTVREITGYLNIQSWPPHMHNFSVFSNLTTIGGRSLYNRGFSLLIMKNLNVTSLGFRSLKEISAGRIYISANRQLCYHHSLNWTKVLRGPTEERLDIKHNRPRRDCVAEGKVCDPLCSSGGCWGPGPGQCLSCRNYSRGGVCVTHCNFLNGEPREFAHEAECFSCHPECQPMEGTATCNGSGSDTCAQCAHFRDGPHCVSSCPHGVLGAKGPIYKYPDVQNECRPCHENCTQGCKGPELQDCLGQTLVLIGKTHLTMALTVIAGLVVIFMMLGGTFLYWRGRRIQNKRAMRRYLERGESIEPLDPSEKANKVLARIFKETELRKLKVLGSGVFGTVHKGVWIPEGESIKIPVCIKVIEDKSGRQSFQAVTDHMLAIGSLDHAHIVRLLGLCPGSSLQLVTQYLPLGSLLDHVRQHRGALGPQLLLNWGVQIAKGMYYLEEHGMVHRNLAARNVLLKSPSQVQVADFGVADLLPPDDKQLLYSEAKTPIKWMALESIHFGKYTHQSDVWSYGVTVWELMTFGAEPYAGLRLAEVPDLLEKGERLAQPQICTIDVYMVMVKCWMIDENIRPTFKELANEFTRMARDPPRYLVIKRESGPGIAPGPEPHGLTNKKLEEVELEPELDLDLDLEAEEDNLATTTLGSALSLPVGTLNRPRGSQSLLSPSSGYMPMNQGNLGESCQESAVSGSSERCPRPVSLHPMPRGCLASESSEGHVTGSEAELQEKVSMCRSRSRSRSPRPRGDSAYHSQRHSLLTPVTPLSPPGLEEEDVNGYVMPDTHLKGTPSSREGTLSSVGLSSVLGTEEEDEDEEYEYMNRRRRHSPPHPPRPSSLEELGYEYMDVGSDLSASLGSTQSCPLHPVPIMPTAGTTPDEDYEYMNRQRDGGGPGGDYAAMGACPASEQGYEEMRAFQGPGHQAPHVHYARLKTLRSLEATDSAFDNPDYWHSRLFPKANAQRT

B1: monoclonal antibody MP-RM-1 (antibody, V domains shown)
VH: DVQLVESGGDLVKPGGSLKLSCVVSGFTFSTYGMSWVRQTPDRRLEWVATISHGDGYTYYPDSVKGRFTISRDNAKNTLHLQMSSLKSEDTAMYYCARHGDYDDDYYAMDYWGQGTSVTVS
VL: DIVMTQSPSSLTVIAGEKVTMSCKSSQSLLNSGNQKNYLTWYQQKPGQPPKLLIYWASTRESGVPDRFTGSGSGTDFTLTISSVQAEDLAVYYCQNEYTYPLTFGAGTKLELKR
notes: Murine IgG2a from hybridoma DSM ACC3018; also called DSM ACC3018
Consider B1, for which the binding result with human ErbB3 receptor [1] is given as “binds”.

B2: cMP-RM-1 #1 (antibody, human IgG1, kappa, V domains shown)
VH: DVQLVESGGDLVKPGGSLKLSCVVSGFTFSTYGMSWVRQTPDRRLEWVATISHGDGYTYYPDSVKGRFTISRDNAKNTLHLQMSSLKSEDTAMYYCARHGDYDDDYYAMDYWGQGTSVTFSS
VL: DIVMTQSPSSLTVIAGEKVTMSCKSSQSLLNSGNQKNYLTWYQQKPGQPPKLLIYWASTRESGVPDRFTGSGSGTDFTLTISSVQAEDLAVYYCQNEYTYPLTFGAGTKLEIKR
notes: Chimeric human IgG1/kappa, from CHO-S cells; Signal peptide left out; also called chimeric variant cMP-RM-1 #1
B2: the binding result with human ErbB3 receptor [2] was “binds”.

B3: hMP-RM-1 #20 (antibody, human IgG1, kappa, V domains shown)
VH: DVQLVESGGDLVKPGGSLKLSCVASGFTFSTYGMSWVRQTPDRRLEWVATISHGDGYTYYPDSVKGRFTISRDNAKNTLHLQMSSLKSEDTAMYYCARHGDYDDDYYAMDYWGQGTTVTVSS
VL: DIVMTQSPSSLTVSLGERATMSCKSSQSLLNSGNQKNYLTWYQQKPGQPPKLLIYWASTRESGVPDRFSGSGSGTDFTLTISSVQAEDVAVYYCQNEYTYPLTFGGGTKLELKR
notes: Humanized IgG1/kappa, from CHO-S cells
For the molecule B3, the binding result in the assay with human ErbB3 receptor [2] is “binds”.

B4: hMP-RM-1 #6 (antibody, human IgG1, kappa, V domains shown)
VH: DVQLVESGGGLVQPGGSLRLSCAASGFTFSTYGMSWVRQTPDKRLEWVATISHGDGYTYYPDSVKGRFTISRDNAKNTLYLQMSSLKSEDTAMYYCARHGDYDDDYYAMDYWGQGTLVTVSS
VL: DIQMTQSPSSLSASVGDRVTITCKSSQSLLNSGNQKNYLTWYQQKPGKAPKLLIYWASTRESGVPSRFSGSGSGTDFTLTISSLQPEDFATYYCQNEYTYPLTFGQGTKVEIKR
notes: Humanized IgG1/kappa, from CHO-S cells; also called humanized MP-RM-1 #6; humanized MP-RM-1#6
Take B4: the binding result with human ErbB3 receptor [3] is given as “binds”.

B5: hMP-RM-1 #10 (antibody, human IgG1, kappa, V domains shown)
VH: DVQLVESGGGLVQPGGSLRLSCAVSGFTFSTYGMSWVRQAPGKGLEWVATISHGDGYTYYPDSVKGRFTISRDNSKNTLYLQMNSLRAEDTAVYYCARHGDYDDDYYAMDYWGQGTLVTVSS
VL: DIQMTQSPSSLSASVGDRVTITCKSSQSLLNSGNQKNYLTWYQQKPGKAPKLLIYWASTRESGVPSRFSGSGSGTDFTLTISSLQPEDFATYYCQNEYTYPLTFGQGTKVEIKR
notes: as for B3
As for B5, in the assay with human ErbB3 receptor [2], the binding result was “binds”.
